{"source": "paper PMC10871369", "about": "(bioRxiv, 2024)", "molecules": {"B1": {"name": "CDCA4: helix-loop-helix B55 binder (SERTA domain) (protein, UniProt Q9BXL8 1-241, looked up)", "Cell division …": "MFARGLKRKCVGHEEDVEGALAGLKTVSSYSLQRQSLLDMSLVKLQLCHMLVEPNLCRSVLIANTVRQIQEEMTQDGTWRTVAPQAAERAPLDRLVSTEILCRAAWGQEGAHPAPGLGDGHTQGPVSDLCPVTSAQAPRHLQSSAWEMDGPRENRGSFHKSLDQIFETLETKNPSCMEELFSDVDSPYYDLDTVLTGMMGGARPGPCEGLEGLAPATPGPSSSCKSDLGELDHVVEILVET"}, "B2": {"name": "IER2: helix-loop-helix B55 binder (protein, UniProt Q9BTL4 1-223, looked up)", "Immediate early response gene …": "MEVQKEAQRIMTLSVWKMYHSRMQRGGLRLHRSLQLSLVMRSARELYLSAKVEALEPEVSLPAALPSDPRLHPPREAESTAETATPDGEHPFPEPMDTQEAPTAEETSACCAPRPAKVSRKRRSSSLSDGGDAGLVPSKKARLEEKEEEEGASSEVADRLQPPPAQAEGAFPNLARVLQRRFSGLLNCSPAAPPTAPPACEAKPACRPADSMLNVLVRAVVAF"}}, "key": {"B55 [1]": {"tested_on": "B55", "test": "Binding of proteins to panel of purified B55 mutants", "conditions": "panel of B55 mutants covering patch 1-3 residues"}, "B55 [2]": {"tested_on": "B55", "test": "MS of B55 WT, V228A, I284A, S287A and D340A immunopurifications", "assay_type": "binding", "conditions": "B55 S287A vs WT immunopurifications"}}}
{"molecule": "B1", "values": [{"measurement": "B55 patch requirement for binding", "setting": "B55 [1]", "result": "requirements from residues in patch 1 and 3"}]}
{"molecule": "B2", "values": [{"measurement": "requirement of B55 S287 (patch 2) for binding", "setting": "B55 [2]", "result": "does not"}, {"measurement": "B55 patch requirement for binding", "setting": "B55 [1]", "result": "requirements from residues in patch 1 and 3"}]}
